This note sets out measurements from patent publication US20180326085A1 (Merck KGaA, published 2018).

The Kd is the equilibrium constant for the complex coming apart. Broadly, the koff is the rate constant with which the complex falls apart. In general, kon refers to a measure of how fast the partners come together.

Test [1] addresses T1, c-MET and EGFR co-expressed on cells (human, UniProt P08581;P00533).
T1 construct: endogenous receptor on the cell surface; not a complex: two separate receptors on the same cell; used as target only for bispecific c-MET x EGFR molecules, whose cell staining cannot be split between the two arms; also called cells that carry both receptors: NCI-H441, EBC-1, A431, MKN-45, A549, HepG2 (cell line under assay)
As to the kind of experiment: flow cytometry, MKN-45 cells (c-MET+++ EGFR++). Background: Flow cytometry measures light scatter and fluorescence of single cells or particles in a stream.

Another test addresses T2, c-MET on cells (human, UniProt P08581).
T2 construct: endogenous receptor on the cell surface; for A549 cells m4 is used; also called HGFR; on NCI-H441, EBC-1, A431, MKN-45, SK-MEL2 or HepG2 cells (cell line under assay)
As to the kind of experiment: flow cytometry, SK-MEL2 cells (c-MET+ EGFR-).

In test [2] the target is T1, c-MET and EGFR co-expressed on cells. Briefly: flow cytometry, A549 cells (c-MET+ EGFR++).
The target is the same in test [3]. As to the kind of experiment: flow cytometry, A431 cells (c-MET+ EGFR+++).
Test [4] shares this target. Briefly: flow cytometry, HepG2 cells (c-MET+ EGFR+).
Test [5] has the same target. As to the kind of experiment: flow cytometry, EBC-1 cells (c-MET+++ EGFR++).
Test [6] concerns the target T3, EGFR (soluble extracellular domain) (human, UniProt P00533).
T3 construct: soluble extracellular domain; also called Human EGFR extracellular domain, R&D Systems 1095-ER
As to the kind of experiment: BLI (Octet), antibody on anti-human Fc biosensors, soluble EGFR ECD as analyte.

The target in test [7] is T4, biotinylated recombinant human c-MET ECD (HGFR extracellular domain) (human, UniProt P08581 25-932, biotinylated (sites not given)).
T4 construct: extracellular domain; also called human c-MET ECD-His
Briefly: BLI (Octet), antibody on anti-human Fc biosensors, soluble c-MET ECD as analyte.

B1: B10v5x425 (bispecific antibody, V domains shown)
VL (c-MET arm): EPVLTQPPSVSVAPGETATIPCGGDSLGSKIVHWYQQRPGQAPLLVVYDDAARPSGIPERFSGSKSGTTATLTISSVEAGDEADYFCQVYDYHSDVEVFGGGTKLTVLGQPKAA
VH (c-MET arm): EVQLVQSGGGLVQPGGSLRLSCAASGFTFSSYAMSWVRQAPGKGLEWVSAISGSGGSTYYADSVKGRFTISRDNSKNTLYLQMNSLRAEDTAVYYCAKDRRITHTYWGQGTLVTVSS
VL (EGFR arm): DIQMTQSPSSLSASVGDRVTITCSASSSVTYMYWYQQKPGKAPKLLIYDTSNLASGVPSRFSGSGSGTDYTFTISSLQPEDIATYYCQQWSSHIFTFGQGTKVEIKR
VH (EGFR arm): QVQLVQSGAEVKKPGASVKVSCKASGYTFTSHWMHWVRQAPGQGLEWIGEFNPSNGRTNYNEKFKSKATMTVDTSTNTAYMELSSLRSEDTAVYYCASRDYDYDGRYFDYWGQGTLVTVSS
notes: c-MET x EGFR SEED bispecific
B1: the “MFI at 100 nM” value in test [1] was determined as 1280; with c-MET on cells it was 213; in test [2], 328; in test [3] it was 1430; in test [4], 348; in test [5], 1960.

B2: matuzumab (425) (antibody, V domains shown)
VH: QVQLVQSGAEVKKPGASVKVSCKASGYTFTSHWMHWVRQAPGQGLEWIGEFNPSNGRTNYNEKFKSKATMTVDTSTNTAYMELSSLRSEDTAVYYCASRDYDYDGRYFDYWGQGTLVTVSS
VL: DIQMTQSPSSLSASVGDRVTITCSASSSVTYMYWYQQKPGKAPKLLIYDTSNLASGVPSRFSGSGSGTDYTFTISSLQPEDIATYYCQQWSSHIFTFGQGTKVEIKG
B2: in test [6], the Kd was determined as 12 nM, the koff amounted to 0.0078 s⁻¹ and the kon was 640000 M⁻¹ s⁻¹.

B3: CS06x425 (bispecific antibody, V domains shown)
VL (c-MET arm): QLVLTQSPSVSVAPGKTARITCGGNNIRNVGVHWYQKKPGQAPILVVYDDDDRPSGVPERFSGSNSGNTATLTISRVEAGDEADYYCQVWDSATDQRVFGGGTKLTVLGQPKAG
VH (c-MET arm): QVQLQQSGAEVKKPGSSAKVSCKASGGTFSSNAISWVRQAPGQGLEWMGGIIPIFGTAIYAQKFQGRVTITADESTSTAYMELSSLRSEDTAVYYCARDQRGYYYYYYYGMDVWGQGTTVTVSS
VL (EGFR arm): DIQMTQSPSSLSASVGDRVTITCSASSSVTYMYWYQQKPGKAPKLLIYDTSNLASGVPSRFSGSGSGTDYTFTISSLQPEDIATYYCQQWSSHIFTFGQGTKVEIKR
VH (EGFR arm): QVQLVQSGAEVKKPGASVKVSCKASGYTFTSHWMHWVRQAPGQGLEWIGEFNPSNGRTNYNEKFKSKATMTVDTSTNTAYMELSSLRSEDTAVYYCASRDYDYDGRYFDYWGQGTLVTVSS
notes: c-MET x EGFR SEED bispecific
Regarding B3, the “MFI at 100 nM” value in test [1] is 1450; with c-MET on cells, 132; in test [2], 268; in test [3] it was 1350; in test [4], 164; in test [5], 1370.

B4: B10x425 (bispecific antibody, V domains shown)
VL (c-MET arm): QSVLTQPPSTSGTPGQRVTISCFGSSSNVGVNTVNWYRQLPGTAPKLLIYDNNLRPSGVPERFSGSKSGTSASLAITGLQAEDEGDYYCQSYDSSLSDVVFGGGTKLTVLGQPKAG
VH (c-MET arm): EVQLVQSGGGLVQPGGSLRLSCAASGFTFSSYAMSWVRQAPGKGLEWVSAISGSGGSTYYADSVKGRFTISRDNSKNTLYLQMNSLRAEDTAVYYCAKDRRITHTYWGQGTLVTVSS
VL (EGFR arm): DIQMTQSPSSLSASVGDRVTITCSASSSVTYMYWYQQKPGKAPKLLIYDTSNLASGVPSRFSGSGSGTDYTFTISSLQPEDIATYYCQQWSSHIFTFGQGTKVEIKR
VH (EGFR arm): QVQLVQSGAEVKKPGASVKVSCKASGYTFTSHWMHWVRQAPGQGLEWIGEFNPSNGRTNYNEKFKSKATMTVDTSTNTAYMELSSLRSEDTAVYYCASRDYDYDGRYFDYWGQGTLVTVSS
notes: c-MET x EGFR SEED bispecific
On to B4, for which the “MFI at 100 nM” value in test [1] worked out at 1260; with c-MET on cells, 25; in test [2], 270; in test [3], 1120; in test [4] it was 101; in test [5], 361.

B5: CS06x225-L (bispecific antibody, V domains shown)
VL (c-MET arm): QLVLTQSPSVSVAPGKTARITCGGNNIRNVGVHWYQKKPGQAPILVVYDDDDRPSGVPERFSGSNSGNTATLTISRVEAGDEADYYCQVWDSATDQRVFGGGTKLTVLGQPKAG
VH (c-MET arm): QVQLQQSGAEVKKPGSSAKVSCKASGGTFSSNAISWVRQAPGQGLEWMGGIIPIFGTAIYAQKFQGRVTITADESTSTAYMELSSLRSEDTAVYYCARDQRGYYYYYYYGMDVWGQGTTVTVSS
VL (EGFR arm): DIQMTQSPSSLSASVGDRVTITCRASQSIGTNIHWYQQKPGKAPKLLIKYASESISGVPSRFSGSGYGTDFTLTISSLQPEDVATYYCQQNNNWPTTFGQGTKVEIK
VH (EGFR arm): EVQLVQSGAEVKKPGASVKVSCKASGFSLTNYGVHWMRQAPGQGLEWIGVIWRGGNTDYNTPFTSRVTITSDKSTSTAYMELSSLRSEDTAVYYCARALTYYDYEFAYWGQGTLVTVSS
notes: c-MET x EGFR SEED bispecific
As for B5, the “MFI at 100 nM” value in test [1] was 1530; in the test with c-MET on cells it was 188; in test [2], 212; in test [3], 890; in test [4], 254; in test [5] it was 2048.

B6: B10x225-L (bispecific antibody, V domains shown)
VL (c-MET arm): QSVLTQPPSTSGTPGQRVTISCFGSSSNVGVNTVNWYRQLPGTAPKLLIYDNNLRPSGVPERFSGSKSGTSASLAITGLQAEDEGDYYCQSYDSSLSDVVFGGGTKLTVLGQPKAG
VH (c-MET arm): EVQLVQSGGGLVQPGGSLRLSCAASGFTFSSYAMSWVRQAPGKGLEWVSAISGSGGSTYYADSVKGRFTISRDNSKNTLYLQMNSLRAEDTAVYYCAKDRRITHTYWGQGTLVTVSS
VL (EGFR arm): DIQMTQSPSSLSASVGDRVTITCRASQSIGTNIHWYQQKPGKAPKLLIKYASESISGVPSRFSGSGYGTDFTLTISSLQPEDVATYYCQQNNNWPTTFGQGTKVEIK
VH (EGFR arm): EVQLVQSGAEVKKPGASVKVSCKASGFSLTNYGVHWMRQAPGQGLEWIGVIWRGGNTDYNTPFTSRVTITSDKSTSTAYMELSSLRSEDTAVYYCARALTYYDYEFAYWGQGTLVTVSS
notes: c-MET x EGFR SEED bispecific; also called 225L, B10
As to B6, the “MFI at 100 nM” value in test [1] worked out at 1220; in the test with c-MET on cells it was 23; in test [2], 192; in test [3], 947; in test [4], 85; in test [5] it was 434.

B7: CS06x225-M (bispecific antibody, V domains shown)
VL (c-MET arm): QLVLTQSPSVSVAPGKTARITCGGNNIRNVGVHWYQKKPGQAPILVVYDDDDRPSGVPERFSGSNSGNTATLTISRVEAGDEADYYCQVWDSATDQRVFGGGTKLTVLGQPKAG
VH (c-MET arm): QVQLQQSGAEVKKPGSSAKVSCKASGGTFSSNAISWVRQAPGQGLEWMGGIIPIFGTAIYAQKFQGRVTITADESTSTAYMELSSLRSEDTAVYYCARDQRGYYYYYYYGMDVWGQGTTVTVSS
VL (EGFR arm): DIQMTQSPSSLSASVGDRVTITCRASQSIGTNIHWYQQKPGKAPKLLIKYASESISGVPSRFSGSGYGTDFTLTISSLQPEDVATYYCQQNYNWPTTFGQGTKVEIK
VH (EGFR arm): EVQLVQSGAEVKKPGASVKVSCKASGFSLTNYGVHWMRQAPGQGLEWIGVIWSGGNTDYNTPFTSRVTITSDKSTSTAYMELSSLRSEDTAVYYCARALTYYDYEFAYWGQGTLVTVSS
notes: c-MET x EGFR SEED bispecific
On to B7, for which the “MFI at 100 nM” value in test [1] is 1470; with c-MET on cells it was 236; in test [2], 264; in test [3], 1170; in test [4], 330; in test [5], 1870. For the same molecule, the Kd was 3.9 nM in test [6] and 0.21 nM in test [7]. Besides, the values for the koff in test [6] and in test [7] were 0.018 s⁻¹ and 0.00022 s⁻¹, respectively. Besides, the kon in test [6] stood at 4.6e+06 M⁻¹ s⁻¹; in test [7], 1.1e+06 M⁻¹ s⁻¹.

B8: B10x225-H (bispecific antibody, V domains shown)
VL (c-MET arm): QSVLTQPPSTSGTPGQRVTISCFGSSSNVGVNTVNWYRQLPGTAPKLLIYDNNLRPSGVPERFSGSKSGTSASLAITGLQAEDEGDYYCQSYDSSLSDVVFGGGTKLTVLGQPKAG
VH (c-MET arm): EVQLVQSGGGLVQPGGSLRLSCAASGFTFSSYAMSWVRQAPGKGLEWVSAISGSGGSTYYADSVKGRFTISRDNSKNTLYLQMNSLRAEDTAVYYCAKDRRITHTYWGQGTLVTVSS
VL (EGFR arm): DIQMTQSPSSLSASVGDRVTITCRASQSIGTNIHWYQQKPGKAPKLLIKYASESISGVPSRFSGSGYGTDFTLTISSLQPEDVATYYCQQNNEWPNTFGQGTKVEIK
VH (EGFR arm): EVQLVQSGAEVKKPGASVKVSCKASGFSLTNYGVHWMRQAPGQGLEWIGVIWSGGNTDYNTPFTSRVTITSDKSTSTAYMELSSLRSEDTAVYYCARALDYYDYEFAYWGQGTLVTVSS
notes: c-MET x EGFR SEED bispecific
In the case of B8, the “MFI at 100 nM” value in test [1] is 1320; with c-MET on cells it was 64; in test [2] it was 454; in test [3] it was 1980; in test [4] it was 100; in test [5] it was 948.

B9: B10x225-M (bispecific antibody, V domains shown)
VL (c-MET arm): QSVLTQPPSTSGTPGQRVTISCFGSSSNVGVNTVNWYRQLPGTAPKLLIYDNNLRPSGVPERFSGSKSGTSASLAITGLQAEDEGDYYCQSYDSSLSDVVFGGGTKLTVLGQPKAG
VH (c-MET arm): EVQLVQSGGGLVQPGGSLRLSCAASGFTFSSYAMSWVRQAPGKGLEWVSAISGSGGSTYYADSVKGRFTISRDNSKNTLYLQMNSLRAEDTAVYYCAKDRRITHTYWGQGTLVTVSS
VL (EGFR arm): DIQMTQSPSSLSASVGDRVTITCRASQSIGTNIHWYQQKPGKAPKLLIKYASESISGVPSRFSGSGYGTDFTLTISSLQPEDVATYYCQQNYNWPTTFGQGTKVEIK
VH (EGFR arm): EVQLVQSGAEVKKPGASVKVSCKASGFSLTNYGVHWMRQAPGQGLEWIGVIWSGGNTDYNTPFTSRVTITSDKSTSTAYMELSSLRSEDTAVYYCARALTYYDYEFAYWGQGTLVTVSS
notes: c-MET x EGFR SEED bispecific
For the molecule B9, the “MFI at 100 nM” value in test [1] was 1790; in the test with c-MET on cells it was 53; in test [2], 572; in test [3] it was 1480; in test [4], 84; in test [5], 671.
